B1: Intersectin-1, residues 1156 to 1213; numbered along this chain, Q15811 (parent)
chain: AVCQVIGMYDYTAQNDDELAFNKGQIINVLNKEDPDWWKGEVNGQVGLFPSNYVKLTT

± gives the uncertainty stated by the source.

In the data set the parent is B1. Kind of data set: abundance fitness (aPCA) (normalised: wild type 0, dead -1); higher = more abundant; growth selection in yeast, the domain comes from the species named. To be noted: Homo sapiens.
For the variant S51A, the abundance fitness was -0.029 ± 0.089.

Take S51R: the abundance fitness was -0.053 ± 0.093.

For the variant S51V, the abundance fitness is -0.181 ± 0.095.

Consider S51N, for which the abundance fitness was -0.506 ± 0.19.

Take S51K: the abundance fitness was -0.09 ± 0.15.

Turning to S51L, the abundance fitness is -0.867 ± 0.17.

For S51P, the abundance fitness is -0.235 ± 0.12.

Turning to S51I, the abundance fitness is -0.751 ± 0.31.

Regarding S51Y, the abundance fitness is -0.927 ± 0.28.

For V46N, the abundance fitness was -0.703 ± 0.29.

Regarding V46L, the abundance fitness was -0.499 ± 0.11.

In the case of V46K, the abundance fitness is -0.306 ± 0.13.

As for V46G, the abundance fitness was -0.712 ± 0.093.

Consider V46T, for which the abundance fitness is -0.337 ± 0.12.

As to V46F, the abundance fitness is -0.463 ± 0.19.

For the variant V46A, the abundance fitness is -0.505 ± 0.091.

For the variant V46C, the abundance fitness is -0.503 ± 0.12.

As for V46D, the abundance fitness is -0.668 ± 0.16.

Consider D10M, for which the abundance fitness was determined as 0.001 ± 0.31.

On to D10N, for which the abundance fitness is -0.227 ± 0.098.

Consider D10I, for which the abundance fitness is -0.919 ± 0.24.

For the variant D10S, the abundance fitness is -0.093 ± 0.13.

Turning to D10C, the abundance fitness is -0.472 ± 0.16.

Turning to Q14Y, the abundance fitness was -0.922 ± 0.26.

For Q14M, the abundance fitness was -0.284 ± 0.13.

In the case of Q14L, the abundance fitness was -0.441 ± 0.087.

Consider Q14K, for which the abundance fitness is 0.161 ± 0.14.

On to Q14D, for which the abundance fitness is -0.285 ± 0.2.

Consider Q14A, for which the abundance fitness is -0.267 ± 0.15.

Regarding Q14C, the abundance fitness was -0.582 ± 0.16.

Q14H: the abundance fitness was -0.505 ± 0.22.

With I27P, the abundance fitness was -0.612 ± 0.17.

I27W: the abundance fitness is -0.908 ± 0.18.

With E41D, the abundance fitness is -1.11 ± 0.41.

For the variant E41R, the abundance fitness was -0.746 ± 0.097.

Consider E41C, for which the abundance fitness was -0.787 ± 0.2.

Turning to E41N, the abundance fitness was -0.889 ± 0.25.

For the variant E41A, the abundance fitness is -0.568 ± 0.12.

For E41I, the abundance fitness was -0.936 ± 0.29.

Turning to E41W, the abundance fitness is -0.642 ± 0.15.

Turning to Y53M, the abundance fitness turned out to be 0.12 ± 0.15.

Consider Y53F, for which the abundance fitness is -0.208 ± 0.15.

As for Y53H, the abundance fitness is -0.26 ± 0.2.

Consider Y53S, for which the abundance fitness is -0.426 ± 0.1.

With F21E, the abundance fitness is -0.745 ± 0.18.

In the case of F21G, the abundance fitness was -0.772 ± 0.097.

As to F21H, the abundance fitness is -0.724 ± 0.2.

Consider F21R, for which the abundance fitness was -0.686 ± 0.1.

With F21C, the abundance fitness is -1.01 ± 0.2.

Consider K55P, for which the abundance fitness is -0.797 ± 0.16.

For K55Q, the abundance fitness was -0.177 ± 0.16.

Regarding K55L, the abundance fitness was -0.318 ± 0.089.

K55H: the abundance fitness was -0.431 ± 0.18.

In the case of K55N, the abundance fitness is -0.456 ± 0.17.

For the variant K55Y, the abundance fitness is -0.427 ± 0.15.

On to K55M, for which the abundance fitness is 0.024 ± 0.16.

In the case of K55F, the abundance fitness is -0.614 ± 0.17.

With W38V, the abundance fitness was -0.906 ± 0.14.

As for W38C, the abundance fitness is -0.793 ± 0.22.

Take W38S: the abundance fitness is -0.763 ± 0.12.

As to Q4S, the abundance fitness is -0.277 ± 0.1.

In the case of Q4W, the abundance fitness is -0.451 ± 0.15.

For Q4D, the abundance fitness is -1.15 ± 0.49.

As to Q4F, the abundance fitness was -0.719 ± 0.26.

In the case of Q4P, the abundance fitness was -0.817 ± 0.17.

Q4E: the abundance fitness was -0.629 ± 0.17.

Turning to Q4H, the abundance fitness is -0.373 ± 0.21.

As to M8H, the abundance fitness is -0.167 ± 0.2.

Turning to M8C, the abundance fitness is -0.02 ± 0.14.

For the variant M8D, the abundance fitness is -0.67 ± 0.18.

For L30R, the abundance fitness is -0.712 ± 0.12.

On to L30H, for which the abundance fitness was -0.7 ± 0.37.

Regarding L30Y, the abundance fitness is -0.32 ± 0.22.

For L30Q, the abundance fitness was -0.257 ± 0.18.

For the variant L30D, the abundance fitness is -0.917 ± 0.27.

L30S: the abundance fitness was -0.758 ± 0.14.

Consider L30K, for which the abundance fitness was -0.825 ± 0.31.

With L30A, the abundance fitness is -0.911 ± 0.14.

Take L30M: the abundance fitness was -0.412 ± 0.15.

As to K23Q, the abundance fitness was -0.043 ± 0.14.

Consider K23Y, for which the abundance fitness was -0.673 ± 0.16.

In the case of K23H, the abundance fitness is -0.298 ± 0.15.

With K23N, the abundance fitness is -0.494 ± 0.24.

Take E33T: the abundance fitness is -0.075 ± 0.15.

E33P: the abundance fitness was -0.6 ± 0.23.

For the variant E33N, the abundance fitness was -0.516 ± 0.23.

For the variant E33L, the abundance fitness is -0.497 ± 0.14.

Take E33I: the abundance fitness was -0.451 ± 0.35.

Turning to E33A, the abundance fitness is -0.211 ± 0.11.

Take N28Q: the abundance fitness was -0.399 ± 0.29.

Turning to N28S, the abundance fitness is 0.186 ± 0.18.

Take N28D: the abundance fitness was -0.284 ± 0.2.

Regarding N28F, the abundance fitness is -0.243 ± 0.4.

As to N28A, the abundance fitness was -0.225 ± 0.15.

Take N15T: the abundance fitness was 0.024 ± 0.12.

As to N15L, the abundance fitness was -0.612 ± 0.087.

Regarding N15V, the abundance fitness is -0.639 ± 0.1.

As for N15P, the abundance fitness is -0.964 ± 0.17.

For N15K, the abundance fitness stood at 0.047 ± 0.11.

Turning to N15D, the abundance fitness was -0.185 ± 0.14.

N15F: the abundance fitness was -0.539 ± 0.21.

With N15A, the abundance fitness was -0.131 ± 0.095.

In the case of N15R, the abundance fitness stood at 0.038 ± 0.075.

With T58N, the abundance fitness is -0.233 ± 0.26.

Take T58S: the abundance fitness was -0.144 ± 0.16.

As for K32L, the abundance fitness was -0.38 ± 0.093.

With K32Q, the abundance fitness is -0.035 ± 0.17.

As to K32Y, the abundance fitness was -0.341 ± 0.21.

Regarding K32F, the abundance fitness is -0.576 ± 0.23.

Take K32A: the abundance fitness amounted to 0.093 ± 0.095.

Consider K32H, for which the abundance fitness was -0.449 ± 0.21.

For K32W, the abundance fitness is -0.109 ± 0.13.

Take K32C: the abundance fitness is -0.147 ± 0.14.

Take K32M: the abundance fitness is -0.039 ± 0.15.

As to G40H, the abundance fitness was -0.832 ± 0.21.

As to G40F, the abundance fitness was -0.953 ± 0.3.

In the case of G40P, the abundance fitness was -0.591 ± 0.16.

Regarding G40S, the abundance fitness was -0.839 ± 0.11.

Turning to G40D, the abundance fitness is -0.722 ± 0.19.

As for C3F, the abundance fitness was -0.155 ± 0.14.

With C3G, the abundance fitness is -0.308 ± 0.079.

For C3M, the abundance fitness is -0.094 ± 0.12.

Regarding C3V, the abundance fitness is -0.374 ± 0.094.

For C3W, the abundance fitness is -0.449 ± 0.13.

With C3R, the abundance fitness was -0.555 ± 0.1.

Regarding C3Y, the abundance fitness is -0.184 ± 0.091.

Regarding C3H, the abundance fitness was -0.706 ± 0.18.

For G44S, the abundance fitness was -0.677 ± 0.1.

Take G44E: the abundance fitness is -0.911 ± 0.17.

With G44P, the abundance fitness is -0.806 ± 0.17.

On to G44N, for which the abundance fitness was -0.219 ± 0.19.

For G44I, the abundance fitness was -0.797 ± 0.21.

For the variant G44Y, the abundance fitness is -0.734 ± 0.22.

N43G: the abundance fitness is -0.241 ± 0.084.

Consider N43H, for which the abundance fitness was -0.08 ± 0.18.

N43A: the abundance fitness was -0.263 ± 0.1.

Turning to N43Y, the abundance fitness is -0.734 ± 0.16.

For the variant N43S, the abundance fitness is -0.294 ± 0.12.

On to N43C, for which the abundance fitness was -0.541 ± 0.16.

For N43W, the abundance fitness was -1.06 ± 0.29.

On to N43F, for which the abundance fitness was -0.799 ± 0.24.

Y11E: the abundance fitness is -0.809 ± 0.21.

Take Y11N: the abundance fitness is -0.937 ± 0.29.

For V2C, the abundance fitness was -0.357 ± 0.18.

As for V2E, the abundance fitness was -0.074 ± 0.17.

Turning to V2M, the abundance fitness was -0.205 ± 0.17.

V2P: the abundance fitness is -0.222 ± 0.15.

On to V2F, for which the abundance fitness is -0.268 ± 0.18.

For V2R, the abundance fitness is -0.003 ± 0.095.

Consider V2A, for which the abundance fitness was -0.492 ± 0.15.

As for I6E, the abundance fitness was -0.013 ± 0.12.

For the variant I6A, the abundance fitness was -0.639 ± 0.17.

Regarding I6D, the abundance fitness is -0.922 ± 0.25.

For I6W, the abundance fitness is -0.688 ± 0.2.

On to I6M, for which the abundance fitness was -0.092 ± 0.15.

I6G: the abundance fitness was -0.64 ± 0.12.

Take I6S: the abundance fitness was -0.655 ± 0.11.

Consider I6Q, for which the abundance fitness is -0.156 ± 0.17.

Turning to D17Q, the abundance fitness is -0.082 ± 0.14.

Regarding D17H, the abundance fitness was -0.298 ± 0.13.

D17C: the abundance fitness was -0.344 ± 0.17.

In the case of D17M, the abundance fitness is -0.048 ± 0.15.

As to D17E, the abundance fitness was -0.03 ± 0.12.

As to D17L, the abundance fitness is -0.125 ± 0.099.

On to D17F, for which the abundance fitness was -0.359 ± 0.19.

Regarding Y9N, the abundance fitness is 0.418 ± 0.15.

Consider Y9T, for which the abundance fitness is 0.257 ± 0.11.

The record behind these values is the Human Domainome abundance scans (Beltran et al. 2025).
